From the supplement of paper PMC10724198
± gives the standard deviation of the averaged measurements.

System: Saccharomyces cerevisiae
Assay: protein stability index of tFT-peptide fusion (C-terminal peptide) (PSI (0-1 scale)); higher = more stable (slower turnover)
Settings: genetic background: wild type; temperature: 30 C
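Note: PSI is a weighted mean of sequencing reads over stability bins, variants kept only with over 10 reads, mCherry proximal and sfGFP distal, peptide attached via GGGS linker.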

**Q.** Which protein stability index does the source give for WGWSLARRFLSV here?
**A.** 0.555 ± 0.037

**Q.** Which protein stability index does the source give for MRSTFFFLQHRH here?
**A.** 0.614 ± 0.013

**Q.** How did the protein stability index turn out when IPSRALSCLLPC was run?
**A.** 0.66 ± 0.053

**Q.** How did the protein stability index turn out when RPRCAPSPPLPP was run?
**A.** 0.691 ± 0.047

**Q.** How did the protein stability index turn out when WNFVCGVFFATG was run?
**A.** 0.543 ± 0.056

**Q.** For PSPLPPPVSRPP, which protein stability index is on record?
**A.** 0.691 ± 0.049

**Q.** With RTSYIKNQKKKG as the sequence, how does the protein stability index read?
**A.** 0.699 ± 0.013

**Q.** With FDVYIKVRGGDI as the sequence, how does the protein stability index read?
**A.** 0.64 ± 0.024

**Q.** With PPGPLPTPPYPP as the sequence, how does the protein stability index read?
**A.** 0.545 ± 0.035

**Q.** For KIKTIKKHKKKY, which protein stability index is on record?
**A.** 0.713 ± 0.056

**Q.** With GVIFPQFDPCAL as the sequence, how does the protein stability index read?
**A.** 0.788 ± 0.056

**Q.** Which protein stability index does the source give for VRSDHSGLEILG here?
**A.** 0.782 ± 0.11

**Q.** QRGKKKKDKSLV was tested. Which protein stability index did it give?
**A.** 0.6424 ± 0.0025

**Q.** PPRSPPLPPGLP was tested. Which protein stability index did it give?
**A.** 0.558 ± 0.039

**Q.** PTIMYIRKTEER was tested. Which protein stability index did it give?
**A.** 0.692 ± 0.043

**Q.** How did the protein stability index turn out when ERGGLGLSRCVS was run?
**A.** 0.663 ± 0.077

**Q.** For KQIPLFILRPQT, which protein stability index is on record?
**A.** 0.704 ± 0.1

**Q.** Which protein stability index does the source give for APPPALHPPPPH here?
**A.** 0.688 ± 0.054

**Q.** With PVFNDDTIIRNP as the sequence, how does the protein stability index read?
**A.** 0.761 ± 0.032

**Q.** With GGWGCGGWGFVG as the sequence, how does the protein stability index read?
**A.** 0.58568 ± 0.00052

**Q.** HTPAPLPPPLHP was tested. Which protein stability index did it give?
**A.** 0.691 ± 0.011

**Q.** How did the protein stability index turn out when IQPDVILLTRFV was run?
**A.** 0.6592 ± 0.0033

**Q.** With GEVRHCRVTVIA as the sequence, how does the protein stability index read?
**A.** 0.539 ± 0.036

**Q.** With GRNDYYTRKISV as the sequence, how does the protein stability index read?
**A.** 0.728 ± 0.17

**Q.** With PTRFLPVPSLFS as the sequence, how does the protein stability index read?
**A.** 0.679 ± 0.048

**Q.** For AVLERGLCCGEY, which protein stability index is on record?
**A.** 0.738 ± 0.031

**Q.** How did the protein stability index turn out when RNRLTTMCRHLE was run?
**A.** 0.655 ± 0.062

**Q.** LPPAPLLSLPSL was tested. Which protein stability index did it give?
**A.** 0.6921 ± 0.0034

**Q.** Which protein stability index does the source give for PGPATKAPLRTL here?
**A.** 0.671 ± 0.018

**Q.** With RSTRDKTRLAKD as the sequence, how does the protein stability index read?
**A.** 0.743 ± 0.11

**Q.** How did the protein stability index turn out when RVLASVGCYLFW was run?
**A.** 0.641 ± 0.015

**Q.** Which protein stability index does the source give for VLSAPPGLLSYT here?
**A.** 0.623 ± 0.053

**Q.** GVVGWWWVRGMG was tested. Which protein stability index did it give?
**A.** 0.756 ± 0.023

**Q.** RVSLELEIIPPS was tested. Which protein stability index did it give?
**A.** 0.706 ± 0.05

**Q.** How did the protein stability index turn out when LPARSLPPPRPP was run?
**A.** 0.653 ± 0.0089

**Q.** With PSKTTALTGPDP as the sequence, how does the protein stability index read?
**A.** 0.737 ± 0.008

**Q.** With VAASGEVVPLMA as the sequence, how does the protein stability index read?
**A.** 0.604 ± 0.046

**Q.** For PHRSTRIDVDPC, which protein stability index is on record?
**A.** 0.837 ± 0.12

**Q.** How did the protein stability index turn out when GVAGRRGQRDVR was run?
**A.** 0.746 ± 0.088

**Q.** For PTPPSPTPLPAT, which protein stability index is on record?
**A.** 0.679 ± 0.043

**Q.** HSVPSCPKFSII was tested. Which protein stability index did it give?
**A.** 0.66732 ± 0.00044

**Q.** Which protein stability index does the source give for DTVTGNWGVGLG here?
**A.** 0.657 ± 0.02

**Q.** How did the protein stability index turn out when IGRVFGMENIKM was run?
**A.** 0.669 ± 0.014

**Q.** Which protein stability index does the source give for SSHHGSSEDDHQ here?
**A.** 0.6597 ± 0.001

**Q.** With RRHPRLPSLSGL as the sequence, how does the protein stability index read?
**A.** 0.651 ± 0.044

**Q.** WSVHGLGSVSIY was tested. Which protein stability index did it give?
**A.** 0.707 ± 0.014

**Q.** With RVWERGRGGDGC as the sequence, how does the protein stability index read?
**A.** 0.679 ± 0.017

**Q.** Which protein stability index does the source give for GGGVWYFSWSFC here?
**A.** 0.595 ± 0.045

**Q.** How did the protein stability index turn out when GWCGGAIIRAWD was run?
**A.** 0.678 ± 0.039

**Q.** HPPPSNYWPSSA was tested. Which protein stability index did it give?
**A.** 0.658 ± 0.084

**Q.** With IVSISCPADWLD as the sequence, how does the protein stability index read?
**A.** 0.754 ± 0.034

**Q.** How did the protein stability index turn out when NIIYKRKKGRRW was run?
**A.** 0.6889 ± 0.001

**Q.** Which protein stability index does the source give for AEFSLFRPHSAA here?
**A.** 0.649 ± 0.11

**Q.** WGGTGALGTVRW was tested. Which protein stability index did it give?
**A.** 0.759 ± 0.028

**Q.** MGGGGARAVVVG was tested. Which protein stability index did it give?
**A.** 0.627 ± 0.021

**Q.** How did the protein stability index turn out when ANECYAEDREIR was run?
**A.** 0.69 ± 0.027

**Q.** VGGLGGVGGGMG was tested. Which protein stability index did it give?
**A.** 0.654 ± 0.03

**Q.** How did the protein stability index turn out when PPPFPPAPRHPP was run?
**A.** 0.614 ± 0.013

**Q.** Which protein stability index does the source give for VVSLGLGPSLRV here?
**A.** 0.709 ± 0.1

**Q.** LIGICCDSGSHC was tested. Which protein stability index did it give?
**A.** 0.691 ± 0.057

**Q.** PAPRFPFLFHPL was tested. Which protein stability index did it give?
**A.** 0.776 ± 0.035

**Q.** Which protein stability index does the source give for SPRPIKCRPLLI here?
**A.** 0.62 ± 0.018

**Q.** With RPLPPPPAPPPL as the sequence, how does the protein stability index read?
**A.** 0.706 ± 0.029

**Q.** For LKPPEDPCASRV, which protein stability index is on record?
**A.** 0.677 ± 0.021

**Q.** For NDGIKYQSEKRR, which protein stability index is on record?
**A.** 0.7 ± 0.02

**Q.** With PMMTKDEFNNRM as the sequence, how does the protein stability index read?
**A.** 0.702 ± 0.015

**Q.** VHRRRVSVGGGG was tested. Which protein stability index did it give?
**A.** 0.69 ± 0.0092

**Q.** With LLPPPPPPSTPT as the sequence, how does the protein stability index read?
**A.** 0.798 ± 0.083

**Q.** How did the protein stability index turn out when LPPSQLPPPHLT was run?
**A.** 0.662 ± 0.019

**Q.** With GVSCIAEGRGGW as the sequence, how does the protein stability index read?
**A.** 0.7143 ± 0.00091

**Q.** How did the protein stability index turn out when APPPPPPLLLSF was run?
**A.** 0.626 ± 0.038

**Q.** With QLPGTVVRYTLF as the sequence, how does the protein stability index read?
**A.** 0.6408 ± 0.0041

**Q.** Which protein stability index does the source give for LHAHTAPAHPKT here?
**A.** 0.689 ± 0.0087

**Q.** Which protein stability index does the source give for GVGGGRVLLLRL here?
**A.** 0.614 ± 0.042

**Q.** Which protein stability index does the source give for CYPFSGLWPPPP here?
**A.** 0.717 ± 0.018

**Q.** With PFAVKYIFEVWK as the sequence, how does the protein stability index read?
**A.** 0.591 ± 0.028

**Q.** For PPPAPPPAIPHP, which protein stability index is on record?
**A.** 0.687 ± 0.0073

**Q.** For LGVGGRWVAPGA, which protein stability index is on record?
**A.** 0.678 ± 0.094

**Q.** GLGSSVLQVGVR was tested. Which protein stability index did it give?
**A.** 0.689 ± 0.056

**Q.** GILFFLQLCACS was tested. Which protein stability index did it give?
**A.** 0.7014 ± 0.0064

**Q.** Which protein stability index does the source give for TPFLPLPSRPRR here?
**A.** 0.726 ± 0.0078
